In the nanobody polyreactivity screen of Harvey et al. (2022):

Test: yeast display, Sf9 membrane polyspecificity reagent, FACS + sequencing; frameworks hold sequencing errors
Method in brief: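 Sorting gates, low and high (top ~1%), were placed on anti-HA fluorescence to track expression and on streptavidin fluorescence to track reagent binding. A clone's polyreactivity label is taken from the gate it came out of. The reagent was 10% biotinylated, detergent-solubilized Sf9 membrane, applied for 1 hour at 4 °C to galactose-induced yeast display cells.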

Row | Sequence | polyreactivity (PSR sort gate)
1 | QVPLVESGVGLVQAGGSLRLSCAASGSTISYYYMGWYRQAPGKEREFVAAIRRRGSSTYYADSVKGRFTISRDNAKNTVYLQINSLKPEDTAVYYCAKRTIAGRGRQYDYWGQGTQVSVSS | high polyreactivity
2 | QVQLVESGGGLVQEGGSLRLSCAPSGFIFRRNAMGAYRQAPGKERELVAAITKSGGSTYYADSVKGRFTISRDNAKNTVYLQMNSLKPEDTAVYYCAAPTWTRSSFDYWGQGTQVTVSS | high polyreactivity
3 | QVQLVESGGGLVQAGGSLRLTCAASGFTFSEYAMGWYRQAPGKEMEVVAAISWRGGSTYYADSVKGRFTISRDNAKNTVYLQMNSLKPEDTAVYYCAADSSGVYASWYKMDYWGKGTQVTVSS | high polyreactivity
4 | QVQLVESGVGLVQAGGSVRLSCAASGRTFYRYAMGWYRQAPGKERELVAAISSGGSTYYADSVKGRFTISRDNAKNTVYLQMNSLKPEDTAVYYCNADYGRRNHMDYWGQGTQVTVSS | low polyreactivity
5 | QVQLVESGGGLVQAGGSLRLSWAASGSIFVHNTMGWYRQAPGKERELVAAITRSVGRTYFADSVKGRFTISRDNAKNTVYLQMTSLQPADTAVYYCAKPASKGYYWGQGTQVTVSS | high polyreactivity
6 | QVQHVESGGGLVQAGGSLRLSCAASGFIFAWYTMGWDRQAPGKERELVAAISRSGVRTYYADSVKGRFTISRDNAKNTVYLQMNSLKPEDTAVYYCAVDWYPTMDYWGQGTQVTLSS | high polyreactivity
7 | QVQLVESGGGLVQAGGSLRLSCAASGSTFRNYAMGWYRQAPGKERELVAAITKRGGTTYYADSVKGRFTISRDNAKNTCYLQMNSLKPEDTAVYYCATGYNSSPFDYWGQGTQVTVSS | high polyreactivity
8 | QVQLVESGGGLVQAGGSLRLSCAASGFTFGYNEMGWYRQAQGKERELVAGIRSGDDTNYADSVKGRFTISRDNAKNTVYLQMNSLKPEDTAVYYCPRDPQFYLHTVPDGAYNYWGQGTQVTVSS | low polyreactivity
9 | QVQLVESGGGLVQAGGSLRLSCAASGFTFYTKAMGWYRQAPGKERELVAGINSGSSTYYADSVKGRFTISRDNAKNTVYLQMNSLKPEDTAVYYCAARRSRYILRGFGYWGQGTQVTVSS | high polyreactivity
10 | QVQLEESRGGLVQAGGSLRLSCAASGSTFVINDMGWYRQAPGKETELVAAISKSGGRTYYADSVKGRFTISRDNATNTVYLQMNSLKPEDTAVYYCAAVSQRTRYGYWGQGTQVTVSS | high polyreactivity
11 | QVQLVESGGGLVQAGGSLRLSCAASGSTFDKYSMGWYRQAPGKERELVAAITWGGGSTYYADSVKGRFTISRDNAKNTVYLQMNSLKPEDTAVYYCAAEQGSSVLYDSWGQGTQVTVSS | low polyreactivity
12 | QVQLVESGGGLVQAGGSLRLSCAASGSTFDSNTMRWYRQAPGKETELVAAITVSGGSTHYADSVKGRFTISRDNAKNTVYLQMNSLKPEDTAVYYCNRRSYGYGAFSGYDYWGQGTQVTVSS | low polyreactivity
13 | QVQLVESGGGLVQAGGSLRLSCAASGRIFGSFAMGWYRQAPGKERELVAAITKRGGRTYYADSVKGRFTISRDNANNTVYLQMNSLKPEDTAVYYCRIASYDYWGQGTQVTVSA | high polyreactivity
14 | QVQLVESGGGLVQAGGSLRLSCAASGNTFAPYAMGWYRQAPGKERELVATISYRGGSTNYADSVKGRFTISRDNAKNTVYLQMNSLKPEDTAVYYCNARYRWVVNRYSASGGSYNYWGQGTQVTVSS | high polyreactivity
15 | QVQLVESGGGLVQAGGSLRLSCAAAGTYKYYAMGWYRQAPGKERELVAASNRGGSTNYADSVKGRFTISRDNAKNTVYLQMNSLKPEDTAVYYCAAERWYVRGRHYFYWGQGTQVTVSS | high polyreactivity
16 | QVQLVESGGGLVQAGGSLRLSCAASGSIFYGNAMGWYRQAPGKERELVAAISQSGSRTYYADSVKGRFTISRDNAKNTVYLQMNSLKPEDTAVYYCAARARIYNYWGQGTQVTVSS | high polyreactivity
17 | QVQLVESGGGLVQAGGSLRLSCAASGRTFYRYAMGWYRQAPGKERELVAAITRRGDSTSYADSVKGRFTISRDNAKNTVYLQMNSLKPEDTAVYYCATLVQGSVYGLYGGGYWGQGTQVTVSS | low polyreactivity
18 | QVQLVESGGGLVQAGGSLRLSCAASGFTFYPYAMGWYRQAPGKERELVAAIRISGGSTYYADSVKGRFTISRDTAKNTVYLQMNSLKPEDTAVYYCAAKYPYYSSYAYGYWGQGTQVTVSS | high polyreactivity
19 | QVQLVESGGGLVQAGGSLRLSCAASGFIFRGYAMGWYRQAPGKERELVAAITSSGGDTYYADSVKGRFTISRDNAKNTVYLQMNSLKPEDSAVYYCAKRARRIGDVNMGSWGQGSQVTVSS | low polyreactivity
20 | QDKLVESAGGLVQAGGSLRLSCADSGSIFPFNAMALNRQATGKVREMVASITSGGTTYYADSLKGRFTISRDNAKNTVYLQMNSLKPEDTAVYYFAGDWVWRVLNSYGVRYDYWGQGTQVTVSS | low polyreactivity
21 | QVQLVESGGGLVQAGCSLRLSCAASGRTFVWYEMGWYRQATGKERELVAAINKRGTSTYYADSVKGRFTISRDNAKNTVYLQMNSLNPEVTAVYYCAVEYIYWFHSRSSYIYDYWGQGTQVTVSS | low polyreactivity
22 | QVQLQESGGGLVQAGGSMRLSCAASGSISELRPMGWYRQAPGKERELVAGISTGGSTNYADSVKGRFTISRDNAKNTVYLQMNSLKPEDTAVYYCAAASYGEGTYDYWGQGTQVTVRS | high polyreactivity

Row | Sequence | polyreactivity (PSR sort gate)
23 | QVQLVESGGGLVQAGGSLRLSCAASGSIFYSYMGWYRQAPGKERECVAAINQRGSSTYYADSVKGRFTISRDNAKNTVYLQMNSLKPEDTAVYDCAAVFFGVYTSRRYYWGQGTQVTVSS | high polyreactivity
24 | QVQLVESGGGLVQAGGSLRLTCPASGTIFWNYAMGWYRQAPGKERELVAAISFSGGSTYYADSVKGRFTISRDNAKNTVYLQMNSLKPEDTAVYYCNADYSYVGEYDYWGQGTQVTLSS | low polyreactivity
25 | QVQLVESGGGLVQAGGSLRLSCAASGRIFRYYAIGWYRQAPGKERELVAAISKSGGGTFYADSVKGRFTISRDNAKNTVYLQMNSLKPEDTAVYYCAARDKGLGKHDYWGQGTQVTVSS | low polyreactivity
26 | QVQLVESGGGLVQAGGSLRLSCAASGRTFYYNAMGWYRQAPGKERELVAAITSRGTTYYADSVKGRFTISRDNAKNTVYLQMNSLKPEDTAVYYCAALALYRAQGNLDYWGQGTQVTVSS | high polyreactivity
27 | QVQLVESGGGIVQAGGSLRLSCAASGSTIDHYTMGWYSQAPGKERELVAAINRIGDSTYYADSVKGRFTISRDNAKNTVYLQMYSVNPEDTAVYYCAARHVPRFKNYGYWGQGTQVTVSS | high polyreactivity
28 | QVQLVESGGGLVQAGGSLRLSCAASGSTFGYYAMGWYRHAHGKERELVAAITGSVDSTYYADSVKGRFTISRDNAKNTVYLQMNSLKPEDTAVYYCAADTYSTYWGQGTQVTVSS | low polyreactivity
29 | QVQLVESGGGLVQAGGSLRLSCSASGIIYKSYAMGWYRQAPGKERELVAAISGGGDTYYADSVKGRFTISRDNAKNTVYLQMNSLKPEDTAVYYCNTDGSQGTIIAIFVKYDYWGQGTQVTVSS | low polyreactivity
30 | QVQLVESGGGLVQAGGSLRLSCAASGSIFSSNVMGWYRQAPWKERELVAAITVRGSRTYYADSVKGRFTISRDNAKNTVYLQLNSLKPEDTAVYYCNAVARVLGSDRRLQYYYWGQGTQVTVSS | high polyreactivity
31 | QVQLVESGGGLVQAGGSLRLSCAASGFIFAVNAMGWYRQAPGKERELVAAISGRGGRTYYADSVKGRFTISRDYAKNTVYLQMNSLKPEDTAVYYCAARSYQYSYSFYWGQGTQVTVSS | high polyreactivity
32 | QVQLVESGGGLVQAGGSLRLSCAASGSTFLVYARGWYRQAPGKERELVADITSRGGSTYYADSVKGRFTISRDNAKNTVYLQMNSLKPEDTAVYYCAALKRVVLFDYWGQGSQVTVSS | low polyreactivity
33 | QVQLVESGGGLVKAGGSLRLSCAASGSIFYSYAMGWYRQAPGKERELVAAITDSGDSTYYADSVKGRFTISRDYAKNTVYLQMNSLKPEDTAVYYCAAGFYPYYYWGLGTQVTVSS | low polyreactivity
34 | QVQIVESGGGLVQAGGSLRLSCAASGFIFYSYAMGWYRQAPGKEREFVASISGRTGSTYYADSVKVRFTISRDNAKNTVYLQMNSLKPEDTAVYYCNARIVHSFRYDYWGQGTQVTVSS | low polyreactivity
35 | QVQLVESGGGLVQAGGSLRLSCAASGRTFPNYVIGWYRQATGKERELVAAINSGGRTNYADSVKGRFTISRDNAKNTVYLQMNRLKQEDTAFYFCTKRGHPARLGYYYWGQGTQVTVSS | low polyreactivity
36 | QVQLQESGGGLVQAGGSLRLSCAASGSIFHLHIMCWYSQAPGKERESVAAISYGTSTYFADSVKGRFTICRDNAKNTVYLQMNSPKPYDTAVYYCAALFLVSKHHHYWGEGTQVTVSS | low polyreactivity
37 | QVQLVESGGGLVQAGGSLRLSCAASGFIFAVNAMGWYRQAPGKERELVATIRATTTSTYADSVKGRFTISRDNAKNTVYLQMNSLKPEDTAVYYCATDVRTISFEYDYWGQGTQVTVSS | low polyreactivity
38 | QVQLVESGGGLVQAGGSLRLSCAASGSIFGPYAMGWYRQAPGKERELVAAISNGGTTYYADSVKGRFTISRDNAKYTVYLQMNSLKPEDTAVYYCNAEQYLYYILGNYDYWGQGTQVTVSS | low polyreactivity
39 | QVQLVESGGGLVQAGGSLRLSCAASGRTFPRYAMGWYRQAPGKERELVAAISVRAGITYYADSVKGRFTISRDNAKNTVYLQMKSLKPEDTADYYCAKDHWTSSYDEGDYWGQGTQVTVSS | low polyreactivity
40 | QVQLVESGGGLVQAGGSLRLSCAASGFIFTPYAMGWYRQAPGKEREFVATITWSGGSTNYADSVKGRFTISRDNAKNTVYLQMNSLKPEDTAVYYCNADTWSPNDYWGQGTQVTVSS | low polyreactivity
41 | QVQLVESGGGLVQAGGSLRLSCAASGSTFLDNAMGWFRQAPGKERELVAAITSGDSTKYADSVKGRFTISRDNEKNTVYLQMNSLKPEDTAVYYCAADVGRNKMDYWGQGTQVTVSS | low polyreactivity
42 | QVQLVESGGGLVQAGGSLRLSCAASGLTFYVYAMGWYRQAPGKERELVAAISSGGRTYYADSVKGRFTISRDNAKNTVYLQMNSLKPEDTAVYFCAAVRHRNYGYWGQGTQVTVSS | high polyreactivity
43 | QVQLVESGGGLVQAGGSLRLSCDASGSTFDQYVMGWYRQAPWKERELVAAISVSGGRTYYADSVKGRFTISRDNAKNTVYLQMKSLKPDDTAVYYCNAPKRYSSIGYDYWGQGTQVTVSS | high polyreactivity
